Data on 13 molecules can be found in patent publication US20260258115A1 (MAPP BIOPHARMACEUTICAL, published 2026).

What all share (assay): BLI, IgG
Assay [1] has as its target RSV prefusion F (preF), subtype A (respiratory syncytial virus, subtype A, UniProt P03420 26-513).
The target in assay [2] is RSV prefusion F (preF), subtype B (respiratory syncytial virus, subtype B).
Assay [3] addresses T1, RSV postfusion F (postF), subtype A (respiratory syncytial virus, subtype A, UniProt P03420 26-513).
T1 construct: also called F ΔFP; Postfusion subtype A

B1: ADI-20962 (antibody, V domains shown)
VH: QVQLVQSGAEVKKPGASVKVSCKASGYTFSHYGLSWVRQAPGQGLEWMGWISAYNHNTNYAQKFQGRVTITTDTSTSTAYLEMRSLRSDDTAVYYCAREPPSDTAAGTGDYWGQGTLVTVSS
VL: DIVMTQSPLSLSVTLGQPASISCRSSQSLVYSDGNTYLTWFQQRPGQSPRRLIYKVSNRDSGVPDRFSGSGSGTDFTLKISRVEAEDVGVYYCMQGTQWPRTFGQGTKVDIK
Consider B1, for which the dissociation constant (Kd) (usually the equilibrium constant for the complex coming apart) in assay [1] is 0.289 nM; in assay [2], 0.463 nM. In addition, in assay [3], the binding result is reported as “no binding”.

B2: ADI-14427 (antibody, V domains shown)
VH: QVQLVQSGAEVKKPGSSVKVSCKASGGTFNSYTINWVRQAPGQGLEWMGRIITIPGATNYAQKFQGRVTFTADKSTSTAYMELSSLRSEDTAVYFCAKRGTGYYGMDVWGQGTTVTVSS
VL: QSVLIQPRSVSGSPGQSVTISCTGTSSDVGGYNYVSWYQQHPGKAPKLMIYDVSERPSGVPDRFSGSKSGNTASLTISGLQAEDEADYYCCSFVGIYILVFGGGTKLTVL
notes: also called Ab 93
Turning to B2, the Kd in assay [1] was 0.234 nM; in assay [2], 10.8 nM; in assay [3], 3.33 nM.

B3: ADI-14602 (antibody, V domains shown)
VH: EVQLVESGGGVVQPGGSLRLSCAASGFSFSSCGMHWVRQVSGKGLEWVAFIRYDGSNKFYADSVKGRFTISRDNSKNTLYLQMNSLRVEDTAVYYCAKGGLEDVSTGYSPHYYYGMDVWGQGTTVTVSS
VL: QPVLTQPPSVSVSPGQTASITCSGDKLAYKYTCWYQQKPGQSPVLVIFQDSKRPSGIPERFSGSNSGNTATLTISGTQALDEADYYCQAWDSSTVVFGGGTKLTVL
notes: also called Ab 130
Turning to B3, the Kd was 4.73 nM in assay [1] and 8.94 nM in assay [2]. Moreover, the binding result in assay [3] was “no binding”.

B4: ADI-14600 (antibody, V domains shown)
VH: QVQLVQSGGGLVKPGGSLRLSCAASGFSFSDYYMNWIRQAPGKGLEWVSYISSSSSYTNYADSVKGRFTISRDNAKKSLYLQMNSLRAEDTAVYYCASQTYSDYARGGAFDIWGQGTTVTVSS
VL: QSVLTQPPSVSGAPGQRVTISCTGSSSNIGAGYDVHWYQQLPGTAPKLLIYGNNNRPSGVPDRFSGSKSGTSASLAITGLQAEDEADYYCQSYDSSLSGSVFGTGTKVTVL
As to B4, the results for the Kd in assay [1] and in assay [2] were 0.758 nM and 0.986 nM, respectively. In assay [3], the binding result is “no binding”.

B5: ADI-20961 (antibody, V domains shown)
VH: QVQLVESGGGLVKPGGSLRLSCAASGFKFSSYYMHWVRQAPGKGLEWVSSVSGGSTYTSYADSVKGRFTISRDNAKHSLFLQLNSLRAEDTAVYHCVRGDYHPSGTSLNWFDPWGQGTLVTVSS
VL: QPGLTQPPSVSGAPGQRVTISCTGSSSNIGAGYDVHWYKQLPGTVPKLLIYANNNRPSGVPDRFSGSESGTSASLAITGLQAEDEADYYCQSYDSSLNAYVFGTGTKVTVL
For the molecule B5, the figures for the dissociation constant (Kd) in assay [1] and in assay [2] were 0.374 nM and 0.504 nM, respectively. Further, the binding result in assay [3] is “no binding”.

B6: ADI-20969 (antibody, V domains shown)
VH: EVQLVESGGGLVKPGGSLRLSCAASGFKFSSYTMNWVRQAPGKGLEWVSSVSASSSYIFYADSVQGRFIISRDNAQNSLYLQMNSLRADDTAVYYCARDQYGPGHYYNPAWFDPWGQGTLVTVSS
VL: QPVLTQPPSVSGAPGQRVTISCTGTSSNIGAGYDVHWYKQLPGTAPKVLIYGNTNRPSGIPDRFSGSKSGTSASLAITGLKAEDEADYYCQSYDRSGSKVFGTGTKLTVL
Consider B6, for which the dissociation constant (Kd) turned out to be 0.301 nM in assay [1] and 0.409 nM in assay [2]. In addition, in assay [3], the binding result is “no binding”.

B7: ADI-14597 (antibody, V domains shown)
VH: EVQLVESGGVVVQPGGSLRLSCAVSGFNFDDYSMHWVRQLPGKGLEWVSLISWDGGITYYADSVKGRFTISRDNSKNSLYLQMNSLRTEDTALYYCAKDGNRYSDNDYYFDYWGQGTLVTVSS
VL: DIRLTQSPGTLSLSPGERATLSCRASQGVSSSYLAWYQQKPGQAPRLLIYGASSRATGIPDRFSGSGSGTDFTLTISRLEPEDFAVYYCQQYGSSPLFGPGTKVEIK
With B7, the Kd in assay [1] turned out to be 5.26 nM; in assay [2], 1.67 nM. For the same molecule, in assay [3], the binding result is listed as “no binding”.

B8: ADI-20959 (antibody, V domains shown)
VH: EVQLLESGAEVKKPGASVKVSCKTSGYTFSNYGVSWVRQAPGQGLEWLGWISAYNGNTNYAQKLQGRVTMTTDSSTSTAYMEVRSLRSDDTAVYYCARDVAPVAASLFDYWGQGTLVTVSS
VL: DIRLTQSPLSLPVTLGQPASISCRSSQSLEFTDGNTYLSWFQQRPGQSPRRLIYKVSNRDSGVPDRFSGSGSGTDFTLKINRVEAEDVGVYYCMQGIHWPPTFGPGTKVEIK
With B8, the dissociation constant (Kd) in assay [1] was 0.337 nM; in assay [2], 0.43 nM. Besides, the binding result in assay [3] is “no binding”.

B9: ADI-14577 (antibody, V domains shown)
VH: QVQLVQSGAEVKKPGASVKVSCKASGYTFTNYGITWVRQAPGQGLEWMGWISAYNGVRNYAQKLQGRVTMTIDTSRTTAYMELKNLRSDDTAMYYCARGPPVIAADDFQHWGQGTMVTVSS
VL: DIQMTQSPLSLPVTLGQPASISCRSSQSLVHSNGDTYLNWFQQRPGRSPRRLIYKVSNRDSGVPDRFSGSGSGTDFTLKISRVEAEDVGVYYCMQGTHWPPDFGQGTRLEIK
As for B9, the Kd in assay [1] came out at 0.439 nM; in assay [2], 2.19 nM. In addition, in assay [3], the binding result is on record as “no binding”.

B10: ADI-14578 (antibody, V domains shown)
VH: QVQLVQSGAEVKKPGSSVKVSCKASGGTFNNYAINWVRQAPGQGLEWMGGIIPMFGTANYAQKFQGRVTMTADESTSTAYMELSSLRSEDTAVYYCASSQIFVGGNYYKLEFDNWGQGTLVTVSS
VL: QSVLTQPPSVSAAPGQKVTISCSGSNSNIGYNDVSWYQQLPGTAPQLLIYDNNKRTSGIPDRFSGSKFGTSATLGITGLQTGDEADYYCGTWDSSLSTVIFGGGTKLTVL
With B10, the dissociation constant (Kd) in assay [1] is 3.29 nM; in assay [2], 4.02 nM. Besides, the binding result in assay [3] is reported as “no binding”.

B11: ADI-20964 (antibody, V domains shown)
VH: QVQLVQSGAEVKKPGASVKVSCKASGYTFTHYGISWVRQAPGQGLEWMGWISAYNGNTNYAQKLQGRVTMTTDTSTSTAYMEVRSLRYDDTAVYYCARDVPVEAATSPEFWGQGTLVTVSS
VL: DIVMTQTPLSLPVTLGQPASISCRSSQSLVYSDGNTYLSWFQQRPGQSPRRLIYKVSNRDSGVPNRFSGSGSGTDFTLKISRVEAEDVGVYYCVQNTHWPAYTFGQGTKVEIK
Turning to B11, the Kd in assay [1] was found to be 0.36 nM; in assay [2], 2.49 nM. Besides, in assay [3], the binding result was “no binding”.

B12: ADI-14426 (antibody, V domains shown)
VH: EVQLVESGGGVVQPGRSLRLSCAASGFTFSSFPMHWVRQAPGKGLEWVAVASYDGRNNYYAGSVKGRFTISRDNSKNTLYLQINSLRAEDTAVYYCAREVVIAAHFDYWGQGTLVTVSS
VL: SSELTQEPAVSVALGQTVRITCQGDSLRSFYANWYQQKPGQAPILVIYGKNDRPSGIPDRFSGSNSGNTASLTITGAQAEDEADYYCNSRDSSGNHRVFGGGTKVTVL
notes: also called Ab 92
Turning to B12, the results for the Kd in assay [1], in assay [2] and in assay [3] were 23.8 nM, 19.2 nM and 0.396 nM, respectively.

B13: ADI-14604 (antibody, V domains shown)
VH: EVQLLESGGGLVQPGGSLRLSCSASGFTFNNYVMHWVRQAPGKGLEDASAISSNGVSTNYADSVKGRFTISRDNSKNTLYLQMRSLRAEDTALYYCVRDLIPHDSSAYYGYHGMDVWGQGTTVTVSS
VL: QPVLTQPPSASGTPGQSVTISCSGSSSNIGTNVVNWYQQLPGTAPKLLIYSNDLRPSGVPDRFSGSKSGTSASLAISGLQSEDEANYYCAAWDDSLNGVLFGGGTKLTVL
Take B13: the equilibrium dissociation constant (Kd) in assay [1] is 2.44 nM; in assay [2] it was 1.53 nM. For the same molecule, the binding result in assay [3] is “no binding”.
